The values below come from paper PMC13530268.

Data set [1] concerns the target PITX3 homeodomain protein (66 amino acid region) (human). In words: native gel or EMSA. In general terms: In EMSA bound probe runs differently from free probe, usually more slowly.
Data set [2] concerns the target PHOX2B Q46K homeodomain protein (human). As to the kind of experiment: native gel or EMSA.
Data set [3] addresses ALX4 homeodomain protein (amino acids 209-274) (human) (UniProt Q9H161). In words: native gel or EMSA.
In data set [4] the target is PHOX2B Q46R homeodomain protein (human). As to the kind of experiment: native gel or EMSA.
The target of data set [5] is OTP homeodomain protein (amino acids 99-164) (human) (UniProt Q5XKR4). As to the kind of experiment: native gel or EMSA.
Another data set concerns the target CRX HD E4N (Homo sapiens, UniProt O43186 34-99, E42N). In words: EMSA.
In data set [6] the target is T1, CRX HD E4N;K50Q (Homo sapiens, UniProt O43186 34-99, E42N;K88Q). In words: EMSA.
T1 sequence (O43186 34-99 E42N/K88Q): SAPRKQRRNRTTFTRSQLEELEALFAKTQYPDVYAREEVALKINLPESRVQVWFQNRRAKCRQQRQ
Data set [7] addresses T2, CRX HD K50Q (Homo sapiens, UniProt O43186 34-99, K88Q). In words: EMSA.
Data set [8] deals with T3, CRX HD (Homo sapiens, UniProt O43186 34-99). In words: EMSA.
T3 sequence (O43186 34-99): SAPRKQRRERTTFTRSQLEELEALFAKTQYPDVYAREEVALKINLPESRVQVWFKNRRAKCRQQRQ
The target in data set [9] is T4, CRX HD R2Q (Homo sapiens, UniProt O43186 34-99, R40Q). In words: EMSA.
T4 sequence (O43186 34-99 R40Q): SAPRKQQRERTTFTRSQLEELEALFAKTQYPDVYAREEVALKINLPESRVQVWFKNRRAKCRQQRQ
The target of the next data set is PHOX2B HD R44G (Homo sapiens, UniProt Q99453 94-158, R141G). As to the kind of experiment: EMSA.
PHOX2B HD R44G, sequence (Q99453 94-158 R141G): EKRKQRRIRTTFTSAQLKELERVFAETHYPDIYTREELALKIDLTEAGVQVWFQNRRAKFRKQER
In the next data set the target is ARX HD P26L (Mus musculus, UniProt O35085 326-390, P355L). As to the kind of experiment: EMSA.
ARX HD P26L, sequence (O35085 326-390 P355L): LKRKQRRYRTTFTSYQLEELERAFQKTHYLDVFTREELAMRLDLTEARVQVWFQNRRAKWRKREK
The target of data set [10] is T1, CRX HD E4N;K50Q. As to the kind of experiment: EMSA. The source holds these as a separate data set.
The target of data set [11] is T2, CRX HD K50Q. As to the kind of experiment: EMSA. The source holds these as a separate data set.
Another data set concerns the target CRX HD R3Q (Homo sapiens, UniProt O43186 34-99, R41Q). As to the kind of experiment: EMSA.
In the next data set the target is CRX HD E4K (Homo sapiens, UniProt O43186 34-99, E42K). In words: EMSA.
CRX HD E4K, sequence (O43186 34-99 E42K): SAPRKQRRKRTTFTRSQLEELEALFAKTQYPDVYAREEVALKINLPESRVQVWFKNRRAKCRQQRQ
Data set [12] addresses T4, CRX HD R2Q. As to the kind of experiment: EMSA. The source holds these as a separate data set.
Data set [13] concerns the target T3, CRX HD. In words: EMSA. The source holds these as a separate data set.

Where two headings read alike, the source gives them in different places.

T2 sequence (O43186 34-99 K88Q): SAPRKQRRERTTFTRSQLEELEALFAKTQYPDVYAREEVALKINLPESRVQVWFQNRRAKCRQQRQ
CRX HD R3Q, sequence (O43186 34-99 R41Q): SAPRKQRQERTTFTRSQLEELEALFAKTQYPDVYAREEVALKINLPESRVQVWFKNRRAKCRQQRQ
CRX HD E4N, sequence (O43186 34-99 E42N): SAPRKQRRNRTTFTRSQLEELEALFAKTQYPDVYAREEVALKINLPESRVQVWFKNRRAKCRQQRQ

For “PITX3 homeodomain protein (66 amino acid region) (domain or fragment)”, the Tau with P3K DNA in data set [1] was 0.157.
With “PHOX2B Q46K homeodomain protein (domain or fragment)”, the Tau with P3Q DNA in [2] was determined as 0.9.
Turning to “ALX4 homeodomain protein (amino acids 209-274) (from UniProt Q9H161 209-274) (domain or fragment)”, the Tau with P4Q DNA in [3] was determined as 0.792.
Turning to “PHOX2B Q46R homeodomain protein (domain or fragment)”, the Tau with P3Q DNA in data set [4] is 1.27.
“OTP homeodomain protein (amino acids 99-164) (from UniProt Q5XKR4 99-164) (domain or fragment)” returned a Tau with P4Q DNA in [5] of 0.29.

B1: P3K (dsDNA)
DNA 1: TGTGTCTTAATCCGATTAACGCACTTGATAGTGCGGGCGTGGCT
DNA 2: AGCCACGCCCGCACTATCAAGTGCGTTAATCGGATTAAGACACA
Turning to B1, the binding result with CRX HD E4N and in the data set with CRX HD R2Q [9] was “binds” throughout. Moreover, the values for the binding signal in the data set with CRX HD E4N;K50Q [6], in the data set with CRX HD K50Q [7] and with CRX HD [8] were 395 ± 90.1 Tau, 340 ± 161 Tau and 8.94 ± 1.78 Tau, respectively.

B2: P3Q (dsDNA)
DNA 1: TGTGTCTTAATTAGATTAACGCACTTGATAGTGCGGGCGTGGCT
DNA 2: AGCCACGCCCGCACTATCAAGTGCGTTAATCTAATTAAGACACA
As for B2, the binding result with PHOX2B HD R44G is listed as “no binding”. Further, the results for the binding signal with CRX HD E4N;K50Q [6], with CRX HD K50Q [7] and with ARX HD P26L were 112 ± 12.1 Tau, 54.6 ± 2.72 Tau and ~10 fold decrease in Tau vs WT, respectively.

B3: Q50 monomer (TAATTA) (dsDNA)
DNA 1: CGGGCTAATTAGGCCTAGTGCGGGCGTGGCT
DNA 2: AGCCACGCCCGCACTAGGCCTAATTAGCCCG
Regarding B3, the binding result with CRX HD E4N;K50Q [10] and in the data set with CRX HD K50Q [11] was “binds” in each case.

B4: K50 monomer (TAATCC) (dsDNA)
DNA 1: CGGGCTAATCCGGCCTAGTGCGGGCGTGGCT
DNA 2: AGCCACGCCCGCACTAGGCCGGATTAGCCCG
As for B4, the binding result with CRX HD R3Q, with CRX HD E4K and in the data set with CRX HD R2Q [12] was “binds” each time.

B5: P4K (dsDNA)
DNA 1: TGTGTCTTAATCCGGATTAACGCACTTGATAGTGCGGGCGTGGCT
DNA 2: AGCCACGCCCGCACTATCAAGTGCGTTAATCCGGATTAAGACACA
As for B5, the binding result in the data set with CRX HD [13] is reported as “binds”.
